According to the DeepSol protein solubility set:

Assay: soluble on expression in E. coli; label from the status in PepcDB or PDB records

For “QVQLQQPGTELVKPGASVKLSCKASGYTFTGFWIHWVKQRPGQGLEWIGHINPGNGGTNYNEKFKRMATLTVDKSSSTAYMQLSSLTSEDSAVYYCARSYSNYVRAMDYWGQGTSVTVSSAKTTAPSVYPLVPVCGGTTGSSVTLGCLVKGYFPEPVTLTWNSGSLSSGVHTFPALLQSGLYTLSSSVTVTSNTWPSQTITCNVAHPASSTKVDKKIEP”, which “soluble on expression in E. coli” value is on record?
The value was “soluble”.

For “SSFKKILGLSSKSHKKSKKMGLPPPYDESSPMETQPSAPLSNDFFGMEDMDLYDKDSLRYEKFRFMLKMTVRSNKPFRSYDDVTAAVSQWDNSYIGMVGKRPFYKIIALIGSSHLQATPAVLADLNQPEYYATLTGRCFLPHRLGLIPPMFNVSETFRKPFNIGIYKGTLDFTFTVSDDESNEKVPHVWEYMNPKYQSQIQKEGLKFGLILSKKATGTWVLDQLSPFK”, which “soluble on expression in E. coli” value is on record?
The value was “soluble”.

With “MGSDKIHHHHHHNSISDSEVHVMVKTFEGHHVNRLEVLKNTWASDVSRIEYCSDKEDPAIPTINLGVDNTDRGHCAKTWEIFRRFLGSSGNGAKWLVVADDDTLMNFKRLKQMLELYDSGDKIIIGERYGYGFSLNGDSGYDYPTGGSGMIFTRSAVESLLAQCPSCIANTDPDDMTIGICALTAGIPIVHESRLHQARPLDYAPEYIKYPISFHKFTDIDPISVYYEYLVELEEYN” as the sequence, how does the “soluble on expression in E. coli” value read?
The value was “not soluble”.

Which “soluble on expression in E. coli” value does the source give for “MEHLFGKWLPDLPAAISDGISLPMVRLLHTRSLTAALRALPHTFSVELLKLGELETECGGRLVREVLLKLDRIPVVEARSECRIGSAFWQNILDCGTRPLGERLFQADLEGARSAFEFAVAGEGCGRYFAARRSRFSRHGEEMLLTEYFLPELKRFIG” here?
The value was “not soluble”.

For “GPGSMSTALFVQATFFNTDNKSTDNKLMTTAAVSHNQSSQDNIMVVNLQKELQKRLEEDAGVKTLYITMGGEPRFNRALFENKSMALFVGDSMSIHHFTDDYGRITRRLLILYPMTFSRREEIPKQQILKKVEKAANQPEDNCGIEVVDLVELQKKHVYLEGQAAACYSYNGEFVYMALSGRSSEQVLSIICAPENLNIPNEKRFVFTAVLPHRSKENGRVIGEDVIPYTSLVGWCGKGICAWGLEFLRFPSEKDQEAFYEHLENNYSKVINLDESELRAFCGNAREVAIAHGNGERRVLCISHQALNALRPFKRQMLEDWYGLGNILPFYADVLERRAGRSVGSLVSVPVIHGEVLPLPGELGVIEAAKVDIKDGGC”, which “soluble on expression in E. coli” value is on record?
Its value is “soluble”.

For “MKRASVWMLLCLFFMLSGCANPSFPPVVDSLSVVISLDVKAETVTFLNAKNGSKIARWNINEPFQGGALSPDGRTLLLYGRDLDRVYRYDLAGGKPLSEWKTGNGIVSAAPSPDGRTWFFGDSTHHAVRVVSRGGKEIARLSVGRSPMTLLVNRQGTELYAIDFQDGRAFVIDASRLRVIRSFSVPKFALGGLMRERRGELWVGGHGSGNKVEKNIHVYSLRDGRLLRTIAAPVMPVDFVETGRGVFVLSHGSNTVYQFLPSGKRLNSVLVGANPFAMEAAGSRLYIASYDSDEIIVVDEATLRPLARWKTGDGPLQLFIREGRT”, which “soluble on expression in E. coli” value is on record?
Its value is “not soluble”.

Which “soluble on expression in E. coli” value does the source give for “INKVPVTVFLWRPEKYWPADFVSENVKNFGYTVEEFTSGKVLYGNIVHPDDFERVERELSRRIEEDYVDFSQEYRILTKSGEARWVEERTFIEADENGVVKYLKGIILDIT” here?
The value was “not soluble”.

Which “soluble on expression in E. coli” value does the source give for “MNTENPIEKPFRKTGDPVDLTSESPLHPRRKSRRIMVGPVPVGGGAPISVQSMTNTLTANVPATLQQIAELTAAGCDIVRVAVPSQDDADALPEICRKSPIPVIADIHFQSKYVFQAIDAGCAAVRVNPGNIRKFDEVGPDICKAATDAGISLRIGVNAGSLDKELYAKYGGPTPEALVASALKEAHMFEDVGFHDFKISVKHHDVITMVETYRLLASKGDWPLHLGVTEAGPAWQGTIKSCLAFGALLAEGIGDTIRVSLSAPPAEEVKVGCKLLEYMGLRPRKFDIISCPSCGRAQVDVIQLASAVTEGLKDVTAPIRVAVMGCIVNGPGEAREADLGVASGNGKGQIFIKGKVIKTVPEDQIVDTLLTIANDIAAQMEADGQVPVNSTGPVVVPIQHPGHLEHHHHHH” here?
The value was “not soluble”.

For “MLKQTFLLSALLFGLSACQSTDVAKQDTVPLQGSWHIEAVQGQPTVDYSPAQITFDAEGKISGNNSCNNFFGQYSQQGQELKIIPGGSTMKACVDALMQQEHKVMQALPLVAKAKLVEGRLTLLSSDDKAVFVLSQLK”, which “soluble on expression in E. coli” value is on record?
The value was “soluble”.

Which “soluble on expression in E. coli” value does the source give for “MGSDKIHHHHHHMNKIVSFFILILVCSCSDRKEHIANILSMNSIDIKTNRINKDEVIARGAFPFEMIDSLFFLFNGDPSSGALVLCESNASELGHFLQKGNGFGECITPGYIGHCNDTIYVSERSRTRRMTYLLSNHNDSLQYKCLEDVSPKMNSEFYYQICRLQSGLFVGARLFGKEHLFTLLDESLDTLTTFARVPIDIEENANNKLAPFIGHLCIDDNTVYYASNDFSYMAAYDILSEKEIKPVFERMYISPIIQKSANGISLDKYKHLLGFGDIRVYQNYIFATYIGKPDITMDQENDISALVPTHLLVFNKDGVPIVKFKFPFKIRSFVFTKSKMYLLDVDCNIESVDLVELWKHLPD” here?
The value was “not soluble”.

For “MGYVPIKNDYNEAQNKDSQSFLIMGLDNTIERKLGTTRTDAMMVITVNNKTKKITYLSLPRDSFVQIDAKNYQGMQRIEAAYTYDGPTASVNTVEKLLNIPINHYVVFNFLSFIKLIDAVGGIDVNVKQAFDGVTKDGPGSIHFDAGKQHLDGTKALSYARERHSDNDIMRGFRQQEIIQAVEDKLKSGQSIMKIMDIIDSLNGNIQTDVDSNELTHLVKEGLTWTNYDKQQLSFDWRTFSNEGRSMVELYPDSIENVRHQLRVSLNLEKPDERDQDGYVFHTNGEFLYQSDYTVQDEAAEENEMTSINGNTYIGVPGNTQTGPLPSVKTENGFIKLEHHHHHH”, which “soluble on expression in E. coli” value is on record?
The value was “soluble”.

For “MNVNRLLIVGAGAFGREVHAWLLDWVKLNPGWVIAGFINDGPGSIARFDHYPAVVSSVEGYEPGPEDYLVCAIAKPADKRLVVEKLLGKGARFFTLIHPSVIMGENVVIGQGAVICPSTVLSVDLRIGAFVTLNIGCLVGHDADIGDFSTLSGHCDITGGVVLEEEVFMGTHASVLPNVKVGKQAVVGAGSVAIRNVAAGITVFGVPAKRISGLEHHHHHH”, which “soluble on expression in E. coli” value is on record?
The value was “not soluble”.

With “MSLNEIDNKLFLVYVGGTAPGANIELHDIRFVVGPSMEETYPAIRKGWFGTQKGLHLDSFVHLHHVDGYRIHLTSEAHEKPEEKRLYFVNFGGYFPNKLAEYHDFTVVVADSPQSAKQLARAQFSKAGLADAEQIHKDDLLAVDDCLCVDLVDNHYVTLEFDGEQQPLVPDWKGYQPLPEGHHHHHH” as the sequence, how does the “soluble on expression in E. coli” value read?
The value was “soluble”.

Which “soluble on expression in E. coli” value does the source give for “MLSIKHLTKIYSGNKKAVDDISLDIQSGEFIAFIGTSGSGKTTALRMINRMIEATEGQIEIDGKDVRSMNPVELRRNIGYVIQQIGLMPHMTIKENIVLVPKLLKWTKEEKDKRAKELIKLVDLPESFLERYPAELSGGQQQRIGVVRALAAEQDIILMDEPFGALDPITRDTLQDLVKTLQRKLGKTFIFVTHDMDEAIKLADKICIMSEGKVVQFDTPDNILRHPANDFVRDFIGQNRLIQDRPNDKTVEGVMIKPITIQAEATLNDAVHIMRQKRVDTIFVVDSNNHLLGFLDIEDINQGIRGHKSLRDTMQQHIYTVQIDSKLQDSVRTILKRNVRNVPVVDDQQRLVGLITRANVVDIVYDTIWGDSEDTVQTEHVGEDTASSKVHEQHTTNVKVRDIGDDKS” here?
The value was “not soluble”.

With “MMCTKEFDYLNEANQATRFQNVWLPGRYTDCNHMKRKQEEVNGEENSTWRSSSSFQ” as the sequence, how does the “soluble on expression in E. coli” value read?
Its value is “not soluble”.

For “MKVFTFLLIIMVCLYNFGVRAAMDNSKHSDEAEKLLAELSARKGEGEGEGEGEGEGEGEGEPKSTVSVFYLQPEEVNTLSHQAKRGDGEAGFRLFLYYKLSNYDEEKSSQWLKIAANNGHATAQYRLYVELQEQGETKEANEWLQKIKLAASNNDSSAIWFLVNCYKNQGNKKEALQWAYKLKASKQPLDADRLIEELTKEQK”, which “soluble on expression in E. coli” value is on record?
The value was “soluble”.

For “MGGGPALNRDSSRHARPFISSPVKTLAIIPAFNEAQAIGPVLGDLPDGWVDEVVVVNNASTDATKANARAAGATVVDEPQQGYGAACLRGIAYAETRQPDVVVFLDGDYSDHPEELPRLVEPIAADEADFVVGSRIRGDAEPGALLPQAQVGNRFACSLMARLWGADYTDLGPFRAIRFRDLLALDMQDETFGWTIEMQIRALEAGLRVEEVPVSYRRGIGPSKITGTLSGTVKASAKILWTIGRMAATTHRRAPRLRERVDRARTDAPTPNPGGLEHHHHHH”, which “soluble on expression in E. coli” value is on record?
The value was “not soluble”.

Which “soluble on expression in E. coli” value does the source give for “MKIAYFSDTYYPTPDGVSTYLKDVKRGLEKRGHEVYIFSLTGDPHEKNVFIPRTVPFPPYDQYRMPLIPFPFREFKTAVDIMPDVIHLHNAFYMSSVGYLVARRLGKKPISTFHTDIDKMRESIRLPFSDLIFDLGKRYSIYLYRKCKFVLAPSCQVKAYLERCGLKNIVTVPLFVDTDELSPAKASNKQDIILYLGRLTKDKGVYRVLELANEMKGTGYKFIIAGVGPELERMKAYVKENDISNVNILGYVKEDEKKQLMEVSKFFIYPSSADTFGISVFEALSMGLPAIVSKEFPVKEDTNAIVYEDFSNIKHIANKLLNIDQATYSEMSTSARTLAISKYSIDRHIDQLLSLYMSLVDHLEHHHHHH” here?
Its value is “not soluble”.

With “MICTLLVPVLGSFELVGQSIKDALAEYTLTDIMNNNQFAGIEFGEAEDGFPAFRFLQTADVKSPYRMLLPEKLYEFAILITFRQSSLKGGYLFSVVNPLDTVVQLGVHLSPVVKNSYNVSLVYTQADQNIGRKLASFGVAHVPDKWNSIALQVLSDKVSFYYDCELRNTTLVTREPIELVFDSASTLYIGQAGSIIGGKFEVSSGGGQFDYAFDLQSIVGELEHHHHHH” as the sequence, how does the “soluble on expression in E. coli” value read?
Its value is “not soluble”.

With “MLSVENLKVVYRGVILALDGVSLEVGEGEAVALLGPNGAGKSSLVRTIAGLLPKFEGRVLDGKVRLFGREATHLDPVGISRLGLTAILEGRPLFRYLTPVENLMAAGHRLPPKALKEGMEEVFARFPRLYERRHEQAGYLSGGEQQMLLLGMALLTRPRLLVVDEPSLGLAPKLVGEVMQTLDALRREKGLSLLLVEQNARAALGVVDRVYVLERGRVVFEGSAKEAMEDQDVMEFYLGKEEVGFRQARRYRRRKRWV” as the sequence, how does the “soluble on expression in E. coli” value read?
Its value is “soluble”.

Which “soluble on expression in E. coli” value does the source give for “GMSLIEIRKRTLIVETTYHENGPAPAQPLKLAASCAVIRNPYAGRYEPDLMPFMAELRSLGTLLATELVDTLGKDNIEVYSKAAIVGVDGEMEHGAVWHEAGGWAMRSVLGEPKAMVPAVKAVATAGYRMMVPVHYIHASYVRSHFNSIEIGIQDAPRPREILFALVMGTGARVHARLGGLTKEAVSVHDGQR” here?
Its value is “soluble”.

Which “soluble on expression in E. coli” value does the source give for “MISGHGDFPIALKESSGMIFGEENNLIAVPFFKGEGIQTLQEKYHQALKDIPEEHEVLFLVDIFGGTPYNAAASFIAEDQRMDMAAGVNLPILLEVLSLREHLALKDLLNNLKAMSQQSFQVCSEHLEKVKTANQD” here?
Its value is “not soluble”.

For “MVKQLNSVEAFREFIHQYPLAVVHVMRDQCSVCHAVLPQIEDLMQSYPNVPLAVINQSQVEAIAGELNIFTVPVDLIFMNGKEMHRQGRFIDMQRFEHHLKQMNDSVNNDVDEHEYRK”, which “soluble on expression in E. coli” value is on record?
The value was “soluble”.

For “MTDKTIAFSLLDLAPIPEGSSAREAFSHSLDLARLAEKRGYHRYWLAEHHNMTGIASAATSVLIGYLAANTTTLHLGSGGVMLPNHLPLVIAEQFGTLNTLYPGRIDLGLGRAPGSDQRTMMALRRHMSGDIDNFPRDVAELVDWFDARDPNPHVRPVPGYGEKIPVWLLGSSLYSAQLAAQLGLPFAFASHFAPDMLFQALHLYRSNFKPSARLEKPYAMVCINIIAADSNRDAEFLFTSMQQAFVKLRRGETGQLPPPIQNMDQFWSPSEQYDVQQALSMSLVGDKAKVRHGLQSILRETDADEIMVNGQIFDHQARLHSFELAMDVKEELLG”, which “soluble on expression in E. coli” value is on record?
Its value is “not soluble”.
